The text below walks through data of US20220348623A1 (Biogen, published 2022).

For the experiment, the target named is T1, AspN-treated GDF11 (human, UniProt O95390 60-114; O95390 122-407, N-linked glycan at Asn-94, biotinylated through the glycan (Octet)).
T1 construct: Full length GDF11 (ACE378) cleaved with endoproteinase AspN only; Glycopeptide 60-114 stays non-covalently associated with fragment 122-407, about 100 kDa by SEC; Minor fragments 60-117, 128-407, 133-407 and 25-114/117 were also detected; also called AspN digested GDF11; GDF11 Asp-N biotin sample
T1 sequence (peptide): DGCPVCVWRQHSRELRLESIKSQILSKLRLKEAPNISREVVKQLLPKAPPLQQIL
T1 sequence: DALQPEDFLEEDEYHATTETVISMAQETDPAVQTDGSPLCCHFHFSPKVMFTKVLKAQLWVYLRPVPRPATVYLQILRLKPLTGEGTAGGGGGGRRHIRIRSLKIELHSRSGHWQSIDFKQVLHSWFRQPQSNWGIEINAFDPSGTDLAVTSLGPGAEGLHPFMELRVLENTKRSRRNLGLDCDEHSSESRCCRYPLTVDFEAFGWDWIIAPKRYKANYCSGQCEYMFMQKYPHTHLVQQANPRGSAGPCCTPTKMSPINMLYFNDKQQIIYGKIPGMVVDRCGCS
The experiment in a line: Octet, biotinylated GDF11 sample captured on Streptavidin sensor, receptor-Fc in solution. How it is done: Following this treatment, GDF11 peptide 60-112/114 was in the supernatant and the rest of the protein precipitated and was in the pellet fraction. The specificity of labeling of GDF11 with biotin hydrazide was confirmed by Western blotting using Streptavidin Horseradish peroxidase for detection. Only full length GDF11 and glycopeptide 60-114 were detected and not the major fragments 122-407 or 299-407. Octet Binding Studies. Binding characteristics of the biotinylated samples were evaluated by Octet on an Octet RED System (FortéBio™, Menlo Park, Calif.) using Dip and Read™ Streptavidin (SA) Biosensors (FortéBio™). Samples were prepared in 5 mM NaH₂PO₄ pH 6.0, 150 mM NaCl, 0.005% Tween-20. […] The ability of biotinylated AspN/furin GDF11 to bind Type I and II receptors was also assessed by Octet using the same loading conditions, followed by treatment of the receptors at 10 μg/mL. […] The tips were washed for 1 min and dissociation monitored for 30 min in the presence of 20 μM free biotin. For secondary binding studies with the receptors, the tips were loaded with biotinylated GDF11 and controls, and washed as described above, then the receptor samples were loaded for 15 min and dissociation monitored for 5 min.
The binding characteristics of the GDF11 peptide 60-112/114 for mature GDF11 residues 299-407 and for AspN fragment residues 122-407 were assessed using an Octet Red system. […]
In general terms: BLI is a label-free optical method that tracks binding on a fibre tip over time.

B1: Recombinant Human Activin RIB (ALK-4)-Fc chimeric protein (Fc fusion, UniProt P36896 24-126, looked up)
chain: SGPRGVQALLCACTSCLQANYTCETDGACMVSIFNLDGMEHHVRTCIPKVELVPAGKPFYCLSSEDLRNTHCCYTDYCNRIDLRVPSGHLKEPEHPSMWGPVE
notes: Bought from R&D systems; also called Activin RIB-Fc; Type I receptor; Fc part of the bought chimera not given
As for B1, the binding result is “no binding”.
